For assay [1], the system named is transgenic mice of which the endogenous mouse NGF locus was replaced with the human NGF gene. As to the kind of experiment: Seltzer neuropathic pain model in mice with human NGF gene, Hargreaves' test. The format is in vivo. As to conditions: 50 mg/kg s.c. at day 8 post-surgery; p<0.05. As to the method:
These mice were used in a Seltzer neuropathic pain model to test REGN268 and control mAbs. Following the Seltzer surgery, these mice were tested at day 4 and at day 8 post-surgery to confirm that the thermal hyperalgesia had developed.

The target of assay [2] is T1, NGF (Homo sapiens, UniProt P01138, DEL136-138/DEL208-209). In words: BIACORE surface kinetics, binding affinity for human NGF. As to the method: Antigen binding affinities of the antibodies for human NGF were determined by surface kinetics using a real-time biosensor surface plasmon resonance assay (BIACORE™). Antibodies were captured on either a goat, anti-human or anti-mouse IgG polyclonal antibody surface created by direct amine coupling of the capture antibody to a BIACORE™ chip. Various concentrations of human NGF were injected over the captured antibody surfaces while the association of the antigen to the antibody and the dissociation of the bound complex were monitored in real time. Kinetic analysis was performed to obtain the equilibrium dissociation constant (KD) and dissociation rate constant, and the latter was used to calculate the antigen/antibody complex dissociation t1/2 (Table 1).
Antigen binding affinities of selected purified antibodies for NGF were also determined by surface kinetics employing a real-time biosensor surface plasmon resonance assay (BIACORE™) as described above. For convenience, antibody 301272-3H10-A10 was renamed “REGN261” (HCVR/LCVR SEQ ID NOs:84/92 and hIgG1 SEQ ID NO:541); 301272-6E07-D10 was renamed “REGN263” (HCVR/LCVR SEQ ID NO:208/216 and hIgG1 SEQ ID NO:541).

Assay [3] concerns the target T1, NGF. In words: BIACORE cross-reactivity test, NGF injected at 20 nM. The format is binding. The settings on record: Table 3; NGF 20 nM. As to the method: The anti-NGF antibodies were examined for binding cross-reactivity with human NT-3. Briefly, goat anti-human IgG polyclonal antibody was chemically linked to a CM5 chip. Anti-NGF monoclonal antibodies were injected forming a surface of about 50 to 900 RU of immobilized antibody through the interaction with the chip coupled polyclonal antibodies. NGF or NT-3 protein at a concentration of 20 nM was injected over the surface, followed by a buffer wash to allow bound ligand to dissociate. Both association and dissociation phases were monitored and data were analyzed. Results are shown in Table 3 (NB=no binding activity observed).

Assay [4] addresses Human NGF binding to human TrkA-hFc (Homo sapiens, UniProt P01138, DEL136-138/DEL208-209). In words: BIACORE receptor blocking assay, free NGF bound to TrkA-hFc. As to conditions: percentage free NGF bound; NGF 10-25 nM with molar excess of antibody; NGF alone = 100%. From the text: To identify blocking antibodies, a receptor blocking assay was designed using a BIACORE™ 3000 instrument. Recombinant human TrkA-hFc and human p75-hFc proteins were amine-coupled to a CM5 chip to a density of about 5000-6000 RU.

In assay [5] the target is T2, Human NGF (MG87 cells stably transfected with human TrkA receptor) (Homo sapiens, UniProt P01138, DEL136-138/DEL208-209).
T2 construct: host or cells: NGF added exogenously; partner TrkA made by stably transfected MG87 cells
As to the kind of experiment: NGF-dependent, TrkA receptor-mediated cell growth of MG87 cells (CCK8). The settings on record: 373 pM human NGF; 3 days. Type of assay: cell-based. As to the method: The ability of NGF antibodies to block NGF-dependent and TrkA receptor-mediated cell growth activity was carried out using MG87 cells stably transfected with a plasmid encoding human TrkA receptor. Briefly, the transfected cells were trypsinized and resuspended at approximately 2.5×10^5 cells per ml and plated at 5,000 cells per well in a 96-well tissue culture plate. The purified antibody proteins were serially diluted in defined medium plus 0.1% BSA and added to the plated cells at concentrations ranging from 0 to 500 nM. Human NGF was added to the wells to a final concentration of 373 pM. The response was measured after incubating the cells for 3 days at 37° C. in a humidified 5% CO2 incubator. Cell growth activity was measured with a CCK8 kit (Dojindo) and OD450nm recorded. The dependency of the signals on the concentrations of antibody was analyzed and IC50 values reported (Table 10, column 2).

Assay [6] deals with T3, NT-3 signaling through p75 and TrkA in PC12 cell line (Homo sapiens, UniProt P20783).
T3 construct: host or cells: NT-3 added exogenously; receptors endogenous in PC12 cells
T3 sequence (P20783 139-257): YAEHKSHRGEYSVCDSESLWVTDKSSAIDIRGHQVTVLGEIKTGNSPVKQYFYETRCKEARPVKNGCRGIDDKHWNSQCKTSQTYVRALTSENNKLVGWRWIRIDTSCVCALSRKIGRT
As to the kind of experiment: PC12 SRE-luciferase assay with 75 nM NT-3 instead of NGF. Type of assay: cell-based. The settings on record: read-out: IC50, blocking of NT-3 signaling. As to the method:
The ability of NGF antibodies to block NGF signaling p75 and TrkA receptor-mediated activity was also measured in vitro using a rat adrenal medulla cell line, PC12, which express both receptors endogenously (Urdiales et al. 1998 J. Neuroscience 18(17):6767-6775). Briefly, PC12 cells were stably transfected with a reporter plasmid containing a serum response element (SRE) linked to a luciferase gene. The transfected cells were resuspended at approximately 2.5×10^5 cells per ml and plated at 50,000 cells per well in a 96-well tissue culture plate in Opti-MEM media overnight. The purified antibody proteins were serially diluted in medium (DMEM plus 0.1% BSA) and added to the plated cells at concentrations ranging from 0 to 100 nM. […] Luciferase activity was measured after incubating the cells for 6 hours at 37° C. in a humidified 7.5% CO2 incubator using BRIGHT GLOW™ luciferase assay system (Promega). Control mAb=RN624.

For assay [7], the system named is circulating levels of neurotrophin-3 (NT-3). In words: Serum NT-3 sandwich ELISA, mice of post incision pain model. The settings on record: day 4, 25 mg/kg i.p., mean±std dev, limit of detection ~40 pg/ml. The format is in vivo, mouse. The text has this: On day 4, after the behavioral tests from post incision pain model were completed, the mice's sera were collected and analyzed for circulating levels of neurotrophin-3 (NT-3) using a sandwich ELISA. The limit of detection (˜40 pg/ml) was defined as two standard deviations (2σ) above background with a minimum of five NT-3 standards to define the response to concentration curve.

The test system of assay [8] is NT-3 levels in sera of naïve C57BL/6 mice. As to the kind of experiment: Serum NT-3 sandwich ELISA, naive mice. As to conditions: 50 mg/kg s.c. The format is in vivo, mouse. From the text: The limit of detection (˜40 pg/ml) was defined as two standard deviations (2σ) above background with a minimum of five NT-3 standards to define the response to concentration curve.

A value given as a limit tells only on which side of the number the result lay.

T1 sequence (P01138 with tags, fused parts or gaps DEL136-138/DEL208-209): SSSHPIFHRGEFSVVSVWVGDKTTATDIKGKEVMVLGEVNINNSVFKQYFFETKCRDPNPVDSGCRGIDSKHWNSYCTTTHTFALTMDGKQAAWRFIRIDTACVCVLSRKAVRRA
Chain of Human NGF binding to human TrkA-hFc (P01138 with tags, fused parts or gaps DEL136-138/DEL208-209): as above
T2 sequence (P01138 with tags, fused parts or gaps DEL136-138/DEL208-209): as above

For “IgG1 Control: negative binding control, IgG1 control (AVASTIN®; Genentech, CA)”, the “relief of neuropathic pain in humanized NGF mice” value in assay [1] is recorded as “had no effect”.
Turning to tanezumab [RN624], the Kd in the assay with NGF [2] (Table 1, read-out: KD) was found to be 1.3 pM; with NGF [2] (Table 2, selected purified antibodies, read-out: KD), 1.25 pM; with NGF [2] (Table 5, read-out: Human NGF KD), 1.25 pM; with NGF [2] (Table 6, selected purified antibodies, read-out: NGF KD) it was 1.25 pM; with NGF [3] it was 1.3 pM. The “% Binding TrkA-hFc” value in assay [4] is listed as 10%. In addition, the half-inhibitory concentration (IC50) is less than 186 pM in assay [5] and roughly 105000 pM in assay [6]. Also, the “Serum NT-3” value was determined as 172 ± 114 pg/mL in assay [7]; 131 ± 41 pg/mL in assay [8] (Day 1, limit of detection ~40 pg/ml); 199 ± 15 pg/mL in assay [8] (Day 7); 196 ± 35 pg/mL in assay [8] (Day 14). Also, in assay [8] (over 1, 7 and 14 days post treatment), the NT-3 levels fell in the range of 131 to 199 pg/mL.

Source of the values: US8613927B2, “High affinity human antibodies to human nerve growth factor” (Regeneron Pharmaceuticals, Inc., priority 2007, dated 2013).
